Experiment: protease stability score; higher = more stable; yeast display proteolysis, trypsin and chymotrypsin;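 further: log10 excess protease needed over predicted unfolded state with 0 meaning unfolded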

Point of comparison: “DEKRYEELVKKAFDVIRNGNEEEMRKLGKPDVEYKYADKEFEGEEAMQTMVQVVKRIGAKVEIQHEEVHGDTAHAVFVYKKGNRTAQTTVKVVYEGDKLKKAEVKMTDEVRKVLHDG”, protease stability score -0.024. Against it:
- DEKRLREIATRIVDALKTNNPEDFQKQLDEDAEVSIGDKTVRGQKQIVKMMDEFNSRVDEIDFKSYTAEGNQVVVNAVFNHNGRQQHLHFVFVFHNGKAKTVKAESS — higher, 1.12
- DEKRLTELLEVMKHGDFDRLANLMDKDVRIEYGDKSVRGREQAQHLMEKQKKRADHVEWKEYHFQGDTVSVRLVVRINGKEVEYHQTYRVNNGKITDMEQRARDEDDERQLRRVEG — lower, -0.093
- DEKRMKELMDKVFRLVMEGNEEDVVKMGAPDVKYKYADHEYKGPEVMKEVAVMVRRLGAEVRVKRKEVHGDTAQADFDYRKGDTTVRTTARVKYEGDKVKRAEVEVSDEVKKIVHQG — higher, 0.144
- DEKRMLKVAKEVAEMVRRGDADRVHKYLKEGGRAEVGDTEINGPDQMKEYVKKVKDQGAHNEYKETEYKGDTMTIKTQAHLGDATVDFEVHYQVKGDKVERVEVRFNKEQLKKFKDS — lower, -0.087
- DEKRMVELMRKIFKTIINGNEDEVKKILPPHGEYHYIDKKFEGKEVAEYIIKLVKKMGAEAKVKEQEVKGDTAKATFQYRKGDKTVQTKAEVKYEGDKMKKARVENTDEVRKVVHQG — the same, -0.024
- DEKRQAKEYVKHFDEVIETNDPDQLNELMDKDVRLDIGETKVSGRDDAKKWAKELVDQIDHVRVNVRKVDVQGDTIKVEVDIQIQYNGRHEQRVLHFTAVLSNGRAKIKRFTVE — higher, 0.559
- DEKRQQDQAKKIADALSTGDEDQFLQNMDPNAHVRVGDKTFHGRDDVRRMLREVNEHVDEINVHDVSVHNGQVDAVLVWEHNGRKQRKKVVVDRHNGRVHSVEIRDQ — lower, -0.189
- DEKRVEELARKLFKYIINGDQEKVKTLLKPNVEYNYIDTQYKGPDAAVTMAQEVKKVGAEVKVREEKVEGNTAEVVFQYRVGDNTMQTKAQVHYEGDKVKEVRVELSEEVKKVVHQG — higher, 0.124
- DEKRVKELADKIFKDIINGNEEVVRKLGDPDVRYEYLDKKFRGEEAMIFIVQVVKRVGAEVKVERKEVRGDTAKADFRYRKGDTEVKTTAEVIYEGDKLKEARVHLTDEVKKVMTQG — higher, -0.006
- DEKRVKEMVKKIFEVIKKGDEDKIVKQLMPNVEYHYIDQKFEGEDAARHIVKIVKHIGAEDREKKHEVNGDTMTVVFVYHNGDKTIQTKATVTYEGDVVKKAEVRLDDEVKKLARKG — higher, 0.088
- DEKRVRRFAHKFIEVIERGDEHELRNLMDPDASMRVGDRTIHGRDEAARTIMKFLKRVDNLEVKSYDAQGDKVDIKVRASHDGKEHRITFDVKVHNGHIRHVTVKID — higher, 2.64
- DEKRYKELADKAFKYIVNGNEEQAIKMLKPNVRYEYVDKEMKGEEAAKEIVQLMQKVGAKVETQEKEVHGDTMRAVFQYHDGDTTVQTTAEVVYKGDKVEKVRVEISEEVKKIVERG — lower, -0.265
- DEKRYKELFETVFKMVINGDEEDVKKIINPNGKYQYGDKEFEGPEVAHELVRVVKEMGAEVKETRYEVNGDTARADFKYINGDQEVTTTAEAVYKGDKMEEARVHISEEVKKVLHQG — lower, -0.143
- DEKRYTEIAEKVFKYARNGNEEEMRKDGMPDLKYKYIDKEYEGEDAMRFVVELVKKIGAEDRQEKQEVKGNTAEAVFVYHNGDETVTTKAQVHYEGDKVKEVRVELTDEVKKVIKKG — higher, 0.135
- DEKTAASQFFRDLRHALRQGDETRIMELADENVEFQIGDKRWHGRESAMELARHVHNRADTVELRIEDLKIDNGQMNADVLITFNHNGRNETQRVNVRARIHNGHVVLVEVHQK — higher, 1.62
- DEKTAQDTAKEIVKYWEQGDFEKLNKNADKNVRIRYGDKDYSGRDNFQELQKKFREHVDHVEVHSVDVEGDKIRVVIMFVVNGKHMVMEFVVDYHNGHLKSVSVDARNPDQKKRADK — higher, 0.46
- DEKTERDQARKLIHILEEGDEEKMANLMDENAHIQVGDTTYSGREDVRRFMQSWSERVDRFSVHSITAHNGKIDIDVEFVVNGRKVQMDLRFHVENGRIKTDKFQFRDEDKFKDMQS — higher, 0.295
- DEKTKAKQLADTLKRLAESGDFVRIAQLFDENARLNYGDKTVHGREQAEDQAKKIHDQIDHMELELKSVSVNENSVQISMEVVWHHNGNHHRFEVVVRIDVDENKNRARNADYQ — higher, 0.921
- DEKTLKELADHLIRAIETGNEHQFQKMADPNVKAQYGDSKVRGREDLAEYFKTLVDRADHIQFDHWDAQGNKVTMHFVLRVNGVDVRIVVFIHVTNGKIKHVRVHVTDPQEFRRMQG — higher, 0.515
- DEKTVKEVVDKWIKALENNDEEKLQKMLKPNGEAHYADTTYKGKDQIVKYVVEFMRRGVELQVKEQEVKGGRAEYQVDATLGGDTVTLRVVIYVKDGVVDKVEFRDDEKVQKMMKKG — higher, 0.105
- DEKVHKIFEHYMTAVNRNNPDRAMRQVDPNAHVEVGDRQISGRENLRETVEKLNKHARINYRDFDAELHGDKVNVDLDIRMEYNGKPYSDHVIIIFRAQGDKIKHMTNDIDPDVEHHFEQ — higher, 0.081
- DEKVKELFKRLLRALHTGDEEQARRLVDPNARIQVGDQRYHGMDEALRQMLHNMQDIEVSQRYIEVDVSGDRVHYRAEVEKTHNGKPEREQYSATVHAHNGKVVQVEMHTDK — higher, 0.069
- DEKVLKALHDVFRAQEHGDERRAMRNLDPNVKIDVGDEQYHGRESWARRIVQERRDMKVEYHKIDFDDRGDKAKITARYEFTENGDPRHVTIDMEAKATNGKVTTMEQRDDG — lower, -0.103
- DEKVQDLVQKFVKWLAQGDHKKLADLLDPNARLHIGEFNVHGREQLREAVTRLQTRMHLSVNRVDASASNGKIKASAKFTVKHNGQPDKKHLNFSAVARGEKVKHMEASDDQ — lower, -0.287

From the NTF2 design screens of Basanta et al. (2020)
